Our source for the K0.5,MT of the microtubule-stimulated steady-state ATPase (NADH coupled assay), 21 mM ionic strength and stoichiometry N values is PMC5582858, “The yeast kinesin-5 Cin8 interacts with the microtubule in a noncanonical manner” (The Journal of Biological Chemistry, 2017).

For experiment [1], the target named is Paclitaxel-stabilized microtubules (bovine brain αβ-tubulin) (bovine) (UniProt Q6B856).
The target is the same in experiment [2]. As to the kind of experiment: co-sedimentation; 3 μM Cin8, 1 μM microtubules, no added nucleotide or 1 mM ATP, ADP or AMPPNP, low and high ionic strength; SDS-PAGE of supernatant and pellet.

On to “Cin8-His-Δ99 (Cin8 motor domain in which the 99-residue loop 8 insert is substituted with the 7-residue loop 8 of Kip1) (from UniProt P27895 70-535) (domain or fragment)”, for which the K0.5,MT of the microtubule-stimulated steady-state ATPase (NADH coupled assay), 21 mM ionic strength in experiment [1] came to 1.3 µM. The substance further returned a stoichiometry N in experiment [2] of 1.3.

Usually stoichiometry N stands for a count of units in the complex or per binding partner.
